# Test results reported in the DeepSol protein solubility set.
# Test: soluble on expression in E. coli; label from the status in PepcDB or PDB records
row,Sequence,soluble on expression in E. coli
1,MCMSVFKRLRDLTMSNVYSLIEKAEDPVKMTDQYLRDMQADVQEAEKSVAAQIALEKKFKILFEEQEALVKKREEQAHMAVQASNLDLARRALEEKQNAEQKMNEYKASYEQNKAAADNLRLKLEEMRKQLTELKNKRETLVARVNAAKAQKNINQAMSGFDSNSAKAGLSRMEEKALQLEAEAEASGEVYKKEKSLDDEFASLNKNSAVDDELARIMKQYEKMAGDPLEHHHHHH,not soluble
2,MQDSRPHPHDWNVSTDEAKRIQRRLASEVTERALPDGGETVAGIDVSVRDDTAQAAVSVLRLPELDVVDEATHRCEVPFPYVPGLLSFREMPAVLPALERLHSTPDVFVTDSHGAAHPRRFGLACHLGVLLDAPAIGVAKSILVGAPQGELGPEKGSRVPLVDDGETVGTVLRTRTDVNPVYVSVGHRCTLDGAADLMLDCSPRYKIPEPTRQAHKLSRAEGAAALEHHHHHH,soluble
3,MHHHHHHSSGVDLGTENLYFQSNAMADCYLTEKKKNFIPIQPMMPDELPDWLDTQDARTQQWVKASGFVGLAGTICSIPESTGALQRVLLGVSDYEYSWDFGGLSKVLPPGAFQLNRDDFEDDEYYERALLAFGLGSYQFNAYRKRSPYLAKLFLPQAHRKRVTDWLTTIYLIRDLINTPAEDMGPSELAQAVKHVAKEFEAKVKIIESKDLETEFPAIYAVGRAGSRPPLLIDLKWGDIKAPKVTLVGKGVCFDSGGLDIKTPGGMLLMKKDMGGAAHALGLARMIMLQQLPVRLRLLIPAVENAIGSRSYRPGDVVQTRARKTIEITNTDAEGRVVLADALAEAVKEDPDLIIDFSTLTGAARIALGPNLPALFANQDSLAQALIDASLKTDDPLWRLPLFQPYRNYLKSEVADLTNSSQNRMAGAITAALFLQHFVSDQIPWAHFDIFAWNLEDLPGRPIGGEAMALRAVFHYLEQQYR,soluble
4,MQKETWRFIDSGNASPAFNMALDEALLYWHSEKKIPPVIRFYGWNPATLSVGYFQNIKKEINFEAVHKYNLGFVRRPTGGRGVLHDQELTYSVIVSEEHPEMPATVTEAYRVISEGILQGFRNLGLDAYFAIPRTEKEKESLKNPRSSVCFDAPSWYELVVEGRKVAGSAQTRQKGVILQHGSILLDLDEDKLFDLFLYPSERVRERMQRNFKNKAVAINELIEKRVTMDEARKAFKEGFETGLNIHLEPYELSQEELDFVHHLAETKYASDEWNYKRMAGDPLEHHHHHH,not soluble
5,MGSDKIHHHHHHMEVLSGECRSASSVASAGGGHAESWARYASMDRKGESSMAAQQPTILATSGGYKAGRRSRLEFDALLHHAVELSGVTGRAPRVTHIGTAAGDQRSFNAELDQAAKIAGFDFSHLNLFTMPSIDDPEAHLLEQDVVWVNGGSVVNLLAVWRAHGLDGILRRVWEAGVVLAGVSAGSICWFQGGTTDSYGPQLRPVTNALGFLPYANGVHYDSEVQRRPLVHRLVADGTLGETHCTDDGAGLVYFGTHLAEAVTEVRGKAAYRVTRHIQGGGAATAAEERLEARFLG,not soluble
6,MNSSILLEVFKNAFSSIAEEMGLVLQRTAFSPNIKERRDFSCAVFDKEGNLVAQAAHIPVHLGSMPLSVKEAIKAFKGEFEEGDMVVLNDPYMGGTHLPDITLVAPFFYKGELLFFLANRAHHADVGGATPGSMPLSTSIFQEGFIIPPLKLMKRGELNEDFMKVFLRNVRTPEEREGDFKAQIMANITGIKRLRELIEREGIEKVLFFSKELMNYSERIIRERIKALPEGEYEFEDYMEDDGYGRKDVKIHLKLKVEKEKLIFDFSKSDDQTRGGINAVRAITLSAVYYAVISLLGSDIPVNEGCFRPLEVITRKGSVVDAEFPAGVAGGNVETSQRIVDVVLGAFSKAIPEKVPAASQGTMNHVTIGGINPENGEPFTYYETIGGGMGASAKGDGESAVHSHMTNTLNTPIEALEHYYPILVTEYSIRKGSGGEGMHRGGDGIVREYEFLTDVEVTVLSERRRLAPYGLFGGKPGMPGINLIKTEEGEKEMPSKFSVYLKKGDRLRVETPGGGGYMKEE,not soluble
7,MSLKKILILFFSIILSLGMVSCSSSGDYKNVSTSKIKKALKSSDLLIKESKIFDAKDFNYFNDVEEDIIQGFVINSSEKLSLEDIIVIKTDEVDKIYKTLENYKKDMIQAPFGEGHGEKINSEIANNTIIEKAGRYVYLISAENATQIENKILNIIKEGHHHHHH,soluble
8,MSAGKIDVHGFEKETLFFKNIASGSKGNCTLIWDSTDLIVIDLGITMKKFRDSIKSLDLAGRSISLFISHEHSDHIGGVPTTSKYVDMDVYMRPALSGSFRRKTYEMDGSLVVGNFEIRAFEIPHDAADPVGFSVLWHNRKISVVSDLGKVTDRVIESIRNSDILAFESNHDVEMLRTGSYPEALKRRILSDHGHLSNEQSAEAISRVATDDMRIILTHLSQENNRPEIALNEVKSYLENRNVRYRSIETADQYTGSSLYTLER,not soluble
9,MHHHHHHSHMHHHHHHSHMSKYAELLAIIEELGKEIRPTYAGSKSAMERLKRGIIHARGLVREALAETERNARS,soluble
10,MSANDFKPETWTSSANEALRVSIVGENAVQFSPLFTYPIYGDSEKIYGYKDLIIHLAFDSVTFKPYVNVKYSAKLGDDNIVDVEKKLLSFLPKDDVIVRDEAKWVDCFAEERKTHNLSDVFEKVSEYSLNGEEFVVYKSSLVDDFARRMHRRVQIFSLLFIEAANYIDETDPSWQIYWLLNKKTKELIGFVTTYKYWHYLGAKSFDEDIDKKFRAKISQFLIFPPYQNKGHGSCLYEAIIQSWLEDKSITEITVEDPNEAFDDLRDRNDIQRLRKLGYDAVFQKHSDLSDEFLESSRKSLKLEERQFNRLVEMLLLLNNSPSFELKVKNRLYIKNYDALDQTDPEKAREALQNSFILVKDDYRRIIESINKSQG,not soluble
11,MSRNLDSPVQTQMAVAVFKTPLTGASKMEGKQHHKHQHLQRQSSGRRVFVQTETGCVLGMELDRSDNVHTVKRRLQIALNFPTEESSLTYGDMVLTNDLSAVRNDSPLLLKRNFMHRSSSTPCLSPTGRDLQQKDRSGPIEILGHSDCFSIVKHMVKDIVKAMKMGVEPLPVHSGLGGAYYFRNKRGESVAIVKPTDEEPFAPNNPKGFVGKALGQPGLKSSVRVGETGFREVAAYLLDYGRFANVPPTALVKITHSVFNVNDGVKGNKPREKKLVSKIASFQKFVAHDFDASDHGTSSFPVTSVHRIGILDIRIFNTDRHGGNLLVKKLDGVGMFGQVELIPIDHGLCLPETLEDPYFEWIHWPQASLPFSDEEVDYIQSLDPVKDCDMLRRELPMIREACLRVLVLCTIFLKEASAYGLCLAEIGEMMTREFRPGEEEPSELEVVCIEAKRSVTERDVFSPRSDVVGEAEFQFDLDCDDLESVYSSKIQLTDDYFTKNPFSNGRSSLGKLEESIKEEEEDEEEEEDKTENTVPMIIMKDSFFSSAAFHDKAPSLSKLSTSMKNTHLSDTTRKNPKPLTRGKSENTSSGHKSANEQLPVSASFVKVADMKEDEWVLFLERFQELLGPAFAKRKTATLSKRQRLGTSCQF,not soluble
12,MPTLKVAYIPEHFSTPLFFAQQQGYYKAHDLSIEFVKVPEGSGRLINLLNSNEVDIAIGLTEAFIADIAKGNENIHVLDTYVKSPLLWAVSTGSNRDDVTDAKQLKRIGVSRIGSGSYVMSFVLAHQLGVPSFDQFQVLSNFKNLRDSVNLKDGVEGSDAFMWEYFTSKKYYDNHEIKQIDQIYTPWSSWVVATSSDSLQAKSDVIKNFIDAVNQGIQYYNEHVDEAIEYISSNLDYSAEDAKEWTKTVEFNSRIGKTPLDWDTIVVKTKDTLKLAGVLAESDDVILKRLNSNVKKTNL,soluble
13,MGHHHHHHSHMQEWLYGEKGYYRKALIGQKGDFYTSVSVSKFFGGAVAFYIIKLLEEEKLFLPLKIVEIGSHHGHFLSDIASFLNALSVGVMEQCAFVSCEPLKELQKLQRTIFKQATQLDLMICDLKDLDFKGHENAFVVSNELFDAFACEIVKDNKMLFIAHDHKGVWGAIDEPTKELLKNLDLKQGCAPLFLEAFIKDLLEKLNEASSWVFLSFDYGDETERKDMHLRAFKNHQALDFKDILNNLASLYQQSDLTYDVNFSLVRFLFEKHHAQFSFFKTQANALLDMGLMGLLETFSKSVGYERYLKEAAKIKPLISPGGLGERFKALEFVKKNKM,not soluble
14,MRKIILASGSPRRKELLELAGVPFEIIVSEVEETIGAYSSPSDIVMSLALQKASAVAENNSDHIVLGADTIVTYESRILGKPSNKAEAKEMLQLLSGKTHEVYTGVAIIAKDKTVTFYERTEVTFWELTEEEIDAYVASKEPLDKAGSYGIQGKGSIFVQHIQGDYYSVVGLPISRLVRELKQFNIDVTHA,not soluble
15,MKFKTNKLSLNLVLASSLLAASIPAFAVTGDTDQPIHIESDQQSLDMQGNVVTFTGNVIVTQGTIKINADKVVVTRPGGEQGKEVIDGYGKPATFYQMQDNGKPVEGHASQMHYELAKDFVVLTGNAYLQQVDSNIKGDKITYLVKEQKMQAFSDKGKRVTTVLVPSQLQDKNNKGQTPAQKKGN,soluble
16,VSVGTHPTFENSPSGTVLTSPPDGSAVDRATDAARRVVDALLRTDRGNANLERVAEELNSIAGHLEEHAPAVAERLIDMWNGEGVTRHDPVTGPENALAPPVVLEGLSDGSVRGTVTLTIPYQGPPGHVHGGVSALLLDHVLGVANAWGGKAGMTAQLSTRYHRPTPLFEPLTLTGKLMSVDGRKITTAGDIRTADGQVCVSVEGLFVDKTVPRPR,soluble
17,MAHHHHHHNQQNKKVEGGYECKYCTFQTPDLNMFTFHVDSEHPNVVLNSSYVCVECNFLTKRYDALSEHNLKYHPGEENFKLTMVKRNNQTIFEQTINDLTF,soluble
18,MGSDKIHHHHHHMIRSTLSSWREYLTPITHKSTFLTTGQITPEEFVQAGDYLCHMFPTWKWNEESSDISYRDFLPKNKQFLIIRKVPCDKRAEQCVEVEGPDVIMKGFAEDGDEDDVLEYIGSETEHVQSTPAGGTKDSSIDDIDELIQDMEIKEEDENDDTEEFNAKGGLAKDMAQERYYDLYIAYSTSYRVPKMYIVGFNSNGSPLSPEQMFEDISADYRTKTATIEKLPFYKNSVLSVSIHPCKHANVMKILLDKVRVVRQRRRKELQEEQELDGVGDWEDLQDDIDDSLRVDQYLIVFLKFITSVTPSIQHDYTMEGW,not soluble
19,EMEEREIINNVFEFGDMQAKNAMVQRIDMVAIDMEDSYDEIIQVFKTEKLSRMPVYEETIDDIVGILNIKDIIFLSDEEIESFDIKNYMREPFFTYEFKKITQLLEEMKLEKSQMAIVVDEYGGTSGLLTIEDLVEVIVGDIE,soluble
20,MGSCMKWDYGEMEDFSVSASGLFITNEGNFQYSNATLSYYDPATCEVENEVFYRANGFKLGDVAQSMVIRDGIGWIVVNNSHVIFAIDINTFKEVGRITGFTSPRYIHFLSDEKAYVTQIWDYRIFIINPKTYEITGYIECPDMDMESGSTEQMVQYGKYVYVNCWSYQNRILKIDTETDKVVDELTIGIQPTSLVMDKYNKMWTITDGGYEGSPYGYEAPSLYRIDAETFTVEKQFKFKLGDWPSEVQLNGTRDTLYWINNDIWRMPVEADRVPVRPFLEFRDTKYYGLTVNPNNGEVYVADAIDYQQQGIVYRYSPQGKLIDEFYVGLEHHHHHH,soluble
21,MSLNFLEFEKPIAELEAKIEALRDVSRHGGDSAIDLDKEIEQLEKKSLELKKKIFSDLGAWETAQLARHPLRPYTLDYVQHVFEEFDELAGDRAFADDKAIVGGIARLEGRPVMIIGHQKGRETKEKVRRNFGMPKPEGYRKALRLMEMAERFNMPIITFIDTAGAYPGVGAEERGQSEAIAKNLKVMSGLKVPVICNVVGEGGSGGALAIGVGDYVNMLQYSTYSVISPEGCASILWRDSDKAPQAAEAMGLTAPRLKELELIDEIIEEPLGGAHRDHVKMAENMKATLLRQLEDLEQLDEESLRERRYQRLMNYGYC,not soluble
